One series deals with O=C(O)CC(=O)C(=O)O. Kind of series: purified protein. The settings on record: AcCoA fixed at 0.3 mM, 0.1 mM DTNB, 100 mM Tris-HCl pH 8.0, room temperature.
In series [1] the test system is CC(=O)SCCNC(=O)CCNC(=O)[C@H](O)C(C)(C)COP(=O)(O)OP(=O)(O)OC[C@H]1O[C@@H](n2cnc3c(N)ncnc32)[C@H](O)[C@@H]1OP(=O)(O)O. The series can be described thus: purified protein. The settings on record: OAA fixed at 0.5 mM, 0.1 mM DTNB, 100 mM Tris-HCl pH 8.0, room temperature.

As for “S. aureus citrate synthase (CS, citZ) (Staphylococcus aureus subsp. aureus USA300)”, in the series with O=C(O)CC(=O)C(=O)O, the Km is 0.03 (95% CI 0.02 to 0.04) mM and the kcat is recorded as 30 (95% CI 28 to 32) s-1. Further, in series [1], the Km is given as 0.29 (95% CI 0.25 to 0.32) mM and the kcat is listed as 41 (95% CI 39 to 43) s-1.

(Values after paper PMC9022596, “Convergent Evolution of Antibiotic Tolerance in Patients with Persistent Methicillin-Resistant Staphylococcus aureus Bacteremia” (Infection and Immunity, 2022).)
